Laboratory results reported in IntAct's records for PubMed 18614016.

B1: Tyrosine-protein kinase CSK (Homo sapiens), P41240 (parent)
chain: MSAIQAAWPSGTECIAKYNFHGTAEQDLPFCKGDVLTIVAVTKDPNWYKAKNKVGREGIIPANYVQKREGVKAGTKLSLMPWFHGKITREQAERLLYPPETGLFLVRESTNYPGDYTLCVSCDGKVEHYRIMYHASKLSIDEEVYFENLMQLVEHYTSDADGLCTRLIKPKVMEGTVAAQDEFYRSGWALNMKELKLLQTIGKGEFGDVMLGDYRGNKVAVKCIKNDATAQAFLAEASVMTQLRHSNLVQLLGVIVEEKGGLYIVTEYMAKGSLVDYLRSRGRSVLGGDCLLKFSLDVCEAMEYLEGNNFVHRDLAARNVLVSEDNVAKVSDFGLTKEASSTQDTGKLPVKWTAPEALREKKFSTKSDVWSFGILLWEIYSFGRVPYPRIPLKDVVPRVEKGYKMDAPDGCPPAVYEVMKNCWHLDAAMRPSFLQLREQLEHIKTHELHL

Variants of: B1
Conditions: with src_chick SRC

Effect of a mutation on the interaction, decreasing interaction:
R281A
R279A
R384A
R389A
R283A
